Laboratory results taken from patent US20230122503A1, “ANTI-PSMA RADIOCONJUGATES AND USES THEREOF” (Janssen Biotech, Inc., priority 2021, published 2023).

Target: human prostate-specific membrane antigen (PSMA), full length, on cells (human) (UniProt Q04609)
Assay: cell-based or functional assay

Sequence of human prostate-specific membrane antigen (PSMA), full length, on cells (human) (Q04609 whole entry): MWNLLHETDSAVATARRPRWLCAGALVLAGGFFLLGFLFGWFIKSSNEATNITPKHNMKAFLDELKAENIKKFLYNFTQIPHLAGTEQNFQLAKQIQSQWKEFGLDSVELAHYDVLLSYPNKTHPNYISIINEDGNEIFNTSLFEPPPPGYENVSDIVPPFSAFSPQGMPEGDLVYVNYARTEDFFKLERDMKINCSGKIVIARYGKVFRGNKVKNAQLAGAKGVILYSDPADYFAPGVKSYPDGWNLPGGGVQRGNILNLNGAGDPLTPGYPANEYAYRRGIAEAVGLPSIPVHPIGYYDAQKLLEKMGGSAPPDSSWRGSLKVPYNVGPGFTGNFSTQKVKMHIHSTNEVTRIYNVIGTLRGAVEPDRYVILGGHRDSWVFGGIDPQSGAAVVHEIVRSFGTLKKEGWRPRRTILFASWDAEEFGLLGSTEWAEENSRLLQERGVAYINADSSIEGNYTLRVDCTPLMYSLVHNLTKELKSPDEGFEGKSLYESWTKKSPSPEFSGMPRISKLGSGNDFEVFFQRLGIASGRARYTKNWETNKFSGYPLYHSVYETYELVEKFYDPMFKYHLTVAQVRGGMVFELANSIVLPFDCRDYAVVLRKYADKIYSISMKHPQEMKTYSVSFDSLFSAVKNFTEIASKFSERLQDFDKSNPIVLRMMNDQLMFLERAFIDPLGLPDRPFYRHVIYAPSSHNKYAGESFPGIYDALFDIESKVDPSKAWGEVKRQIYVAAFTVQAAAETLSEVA

## Isotype control conjugated to DX8951 (antibody)
  IC50 (cytotoxicity on 22RV1 cells, DX8951 ADC, DAR 8, 6 d): 57.2 nM

## Isotype control conjugated to MMAF (antibody)
  IC25 (cytotoxicity on 22RV1 cells, MMAF ADC, DAR 4.3, 6 d): > 100 nM
